Earlier results, collected in patent US20240408194A1, “DNA ORIGAMI SUBUNIT VACCINE FOR PREVENTION OF SARS-CoV-2 VARIANT INFECTION” (priority 2021, published 2024).

Target: T1, fibrinogen (Homo sapiens, UniProt P02675+P02679)
T1 sequence (P02675 31-491): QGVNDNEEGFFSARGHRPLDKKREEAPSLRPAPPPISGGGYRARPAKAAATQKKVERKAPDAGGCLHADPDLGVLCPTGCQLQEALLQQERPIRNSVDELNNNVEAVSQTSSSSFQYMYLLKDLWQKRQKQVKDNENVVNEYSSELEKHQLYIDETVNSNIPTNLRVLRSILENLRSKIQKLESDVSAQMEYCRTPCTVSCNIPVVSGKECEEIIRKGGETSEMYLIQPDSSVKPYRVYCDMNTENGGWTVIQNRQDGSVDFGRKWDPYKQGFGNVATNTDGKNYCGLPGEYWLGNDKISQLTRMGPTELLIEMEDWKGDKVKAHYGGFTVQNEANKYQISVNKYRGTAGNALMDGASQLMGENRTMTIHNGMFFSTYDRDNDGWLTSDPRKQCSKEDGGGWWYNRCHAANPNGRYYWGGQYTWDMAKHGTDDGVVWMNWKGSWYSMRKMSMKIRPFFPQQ
T1 sequence (P02679 27-453): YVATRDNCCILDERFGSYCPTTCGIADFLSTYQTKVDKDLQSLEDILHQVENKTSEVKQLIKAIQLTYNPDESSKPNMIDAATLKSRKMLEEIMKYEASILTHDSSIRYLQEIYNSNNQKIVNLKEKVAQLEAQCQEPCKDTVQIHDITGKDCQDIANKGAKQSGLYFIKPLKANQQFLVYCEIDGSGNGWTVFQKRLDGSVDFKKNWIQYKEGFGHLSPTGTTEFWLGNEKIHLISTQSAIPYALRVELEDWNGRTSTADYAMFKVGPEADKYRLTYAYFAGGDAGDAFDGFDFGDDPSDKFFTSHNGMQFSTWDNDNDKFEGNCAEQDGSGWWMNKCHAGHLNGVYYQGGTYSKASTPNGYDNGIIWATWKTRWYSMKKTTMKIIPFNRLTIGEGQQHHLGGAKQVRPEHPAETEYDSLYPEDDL
T1 sequence (P02671 20-629 partner limits assumed): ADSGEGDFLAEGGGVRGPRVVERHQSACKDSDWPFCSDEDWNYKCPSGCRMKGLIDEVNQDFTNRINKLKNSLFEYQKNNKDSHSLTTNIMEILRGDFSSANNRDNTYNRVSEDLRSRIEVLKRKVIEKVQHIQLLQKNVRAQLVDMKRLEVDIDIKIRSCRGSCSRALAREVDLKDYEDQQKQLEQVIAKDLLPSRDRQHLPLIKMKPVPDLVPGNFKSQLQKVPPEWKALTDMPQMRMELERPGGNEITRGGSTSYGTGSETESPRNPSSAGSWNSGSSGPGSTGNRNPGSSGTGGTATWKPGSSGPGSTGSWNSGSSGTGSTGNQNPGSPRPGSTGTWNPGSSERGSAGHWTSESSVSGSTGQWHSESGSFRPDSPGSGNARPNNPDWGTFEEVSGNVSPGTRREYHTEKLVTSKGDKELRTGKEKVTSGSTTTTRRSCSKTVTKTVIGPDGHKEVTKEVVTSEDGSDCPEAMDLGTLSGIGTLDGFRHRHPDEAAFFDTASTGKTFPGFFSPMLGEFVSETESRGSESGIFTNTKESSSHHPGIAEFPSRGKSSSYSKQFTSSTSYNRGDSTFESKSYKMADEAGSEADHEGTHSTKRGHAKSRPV
Settings: hydrophobic pocket domains of fibrinogen; cited from earlier work

In the case of “GPRPXX: short fibrin knob peptide (SEQ ID NO: 3) that recognizes hydrophobic pocket domains of fibrinogen”, the Kd is given as 5 to 10 µM.
